According to article PMC3300016:

How the values were obtained:
[1] = molecular target: BPV-1 E1 helicase domain (E1HD), residues 299-605 (bovine papillomavirus (BPV-1)) (UniProt P03116); test: SEC
[2] = molecular target: T1, E1HD (E1 helicase domain) (bovine papillomavirus BPV-1, UniProt P03116 299-605); test: EMSA
[3] = molecular target: T1, E1HD (E1 helicase domain); test: gel filtration

T1 sequence (P03116 299-605): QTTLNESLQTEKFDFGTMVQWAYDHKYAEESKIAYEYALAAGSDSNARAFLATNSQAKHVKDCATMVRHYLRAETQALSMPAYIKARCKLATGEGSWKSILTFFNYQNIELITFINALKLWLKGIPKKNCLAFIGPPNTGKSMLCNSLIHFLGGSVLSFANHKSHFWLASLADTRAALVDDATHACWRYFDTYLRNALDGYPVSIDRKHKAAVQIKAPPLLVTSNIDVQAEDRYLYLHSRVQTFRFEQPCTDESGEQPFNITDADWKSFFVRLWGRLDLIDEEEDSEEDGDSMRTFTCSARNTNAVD

In the case of “BPV-1 E1 helicase domain (E1HD), residues 299-605 (from UniProt P03116 299-605) (domain or fragment)”, the stoichiometry N [1] is reported as 6.

B1: T30 (ssDNA)
DNA: TTTTTTTTTTTTTTTTTTTTTTTTTTTTTT
B1: binds [2].

B2: T18 (ssDNA)
DNA: TTTTTTTTTTTTTTTTTT
B2: binds [3].
